These results are taken from the supplement of paper PMC12042874.

± gives the uncertainty stated by the source.

This series in a line: amyloid nucleation score (Sup35N fusion, yeast selection) (log enrichment); library NNK3; higher = more nucleation; inactive = no reads after selection. The method, boiled down: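 Yeast lacking psi expressed peptides of 20 random codons fused to Sup35N, received 100 μM copper sulfate for 24 hours, and were then grown for 7 days at 30°C on medium lacking adenine and uracil. Illumina sequencing of input and output plasmid inserts provided the reads. Nucleation scores are DiMSum log enrichments of output over input, centred on the mode of non-aggregating sequences. Any sequence with under 100 input reads was excluded.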
On to CSTIVWWEIAYKL, for which the amyloid nucleation score result was “inactive”. On to CTLGHCMKLSMSSFPAVGKV, for which the amyloid nucleation score entry was “inactive”. For CTLMIFGCN the value was “inactive”; for CTVPMPDSVNVSAE, “inactive”. To CVAECPLA belongs “inactive”; to CVASGCTVKACFYSMREDRY, 1.53 ± 0.092.

In turn, CVATNYSYCSIFLHRA came in with an amyloid nucleation score of 2.01 ± 0.079.

CVICSELLSSDCIIGDHRLR registered an amyloid nucleation score of 1.7 ± 0.1. For CVILYLTGKSFIVLSIVVAE the value was “inactive”; for CVIPRQIYWWCYRSTGRLIL, “inactive”. Take CVLRAFATVKHFTSGLCSCG: the amyloid nucleation score entry is “inactive”. Take CVNGTKEGTVRGSRARGRSF: the amyloid nucleation score result was “inactive”. To CVSMKRN belongs 2.07 ± 0.067. To CVSNISSFGKLEFTYVIEVW belongs “inactive”; to CVSYAISNGLRMEFSKENQY, 0.415 ± 0.14; to CVTINVIFDNVVY, 2.3 ± 0.061. For CVVIFICPQKG the value was 0.811 ± 0.26; for CVVPHPLSLPSD, “inactive”. Turning to CVWTSVLDVRYLYWCNVDVR, the amyloid nucleation score result was “inactive”.

Regarding CWKQGLNRYLWW, the amyloid nucleation score came out at 0.752 ± 0.13. To CWTMVASVTCYIVLLARWK belongs “inactive”. For CYDTFGLFYCFLVWVWDLIV the value was “inactive”.

With CYEGR, the amyloid nucleation score result was “inactive”. For CYELLESS the value was “inactive”; for CYHAFRCSGLARACVENINW, “inactive”; for CYLFVLL, “inactive”. For CYLSSTGVVYAGYVYI the value was “inactive”; for CYLVLFGAM, “inactive”.

In the case of CYNAKCHFIGYDVAGNSGVW, the amyloid nucleation score result is “inactive”.

Turning to CYNQRGCTIGILQFLPRPVW, the amyloid nucleation score entry was “inactive”. For CYRWL the value was “inactive”; for DAAQCRSDNYALFELNSAHC, “inactive”. For DADYLT the value was “inactive”; for DAETPLHSFGMQLLGRASMR, “inactive”. With DAKKVCFGIKEDCWR, the amyloid nucleation score entry is “inactive”. For DALVYVLGSCMWIGASSTSA the value was -0.354 ± 1.1; for DAPVVTVRAGNAGNHSMIPW, “inactive”.

For the substance DCCGLVAYNLVFRICGACLG, the amyloid nucleation score entry is “inactive”.

For the substance DCESQQLSSSMWDTPQRWLT, the amyloid nucleation score result is “inactive”.

In turn, DCFDFIEETGTNKAFRVWGI came in with an amyloid nucleation score of 0.283 ± 0.24. For DCGSSCKSYPGKVVDNEMDE the value was “inactive”; for DCGVVCSRNRNAEEEMLDSV, “inactive”. To DCWHLRQLWGVMSCQ belongs 0.48 ± 0.42; to DDDEVASCLPYWRCAALKSG, “inactive”. To DDFVG belongs “inactive”; to DDRDSNSVTLDNSWSYSITV, “inactive”. Turning to DDRLCLGASENVWGFTVVRR, the amyloid nucleation score result is “inactive”.

For the substance DECVYLFKNSYSVIILMFFK, the amyloid nucleation score entry was “inactive”. Regarding DECYNVLRSVVYGMTSSTGW, the amyloid nucleation score result is “inactive”. To DEFINLSFA belongs “inactive”; to DEIACPYSAWLRMSMPEARS, “inactive”. To DEMPRVSMRVNNMPGCDNDE belongs “inactive”; to DFGMVLSNRFKTMKDCSYFC, 0.785 ± 0.23; to DFIDLLLSSDEIMKS, “inactive”. Consider DFRHSMEASWKIWIRAGTRE, for which the amyloid nucleation score result is “inactive”. To DFYIGTGLISKVRLGHRCSC belongs -0.305 ± 0.44. To DFYIIDSLIRMCMRICEFVL belongs “inactive”; to DGARLCSAAMLAGQGLDEDG, “inactive”. For DGAVFRFNMGHYKYSLVEVM the value was “inactive”; for DGCGFIVTFVSAGVRSWLGI, 0.712 ± 0.29. On to DGFLKLEFAFQCFTRLCLAF, for which the amyloid nucleation score entry was “inactive”. To DGPTRLNLFNSLFVSLKRMY belongs 1.58 ± 0.12; to DGRRSMATCWIHSNCPWRAS, “inactive”; to DHAIM, 1.46 ± 0.14. For DHCGNFEDRWICVINNMRVS, the amyloid nucleation score result is “inactive”. In the case of DHCRNKQCVPTWDAYLEQ, the amyloid nucleation score is -0.339 ± 0.52.

DHVGCATNRSDVDVTVFV: the amyloid nucleation score result was “inactive”. Consider DHWLLQYERRCKLGGFGY, for which the amyloid nucleation score entry is “inactive”. For DICHWVEYFV the value was “inactive”; for DICRFNWMFHF, 1.3 ± 0.11.

DIFCCWTDISDLF: the amyloid nucleation score result was “inactive”. To DIFGSGYGYRGLSGRNYINM belongs “inactive”; to DIPSVGQKRCSHGDRYNSAK, “inactive”; to DIRCGFLHKQGPLTMRATEQ, “inactive”. Take DIRSGTLC: the amyloid nucleation score entry was “inactive”. As for DISIPVLKRSFTCSMAYHC, the amyloid nucleation score entry was “inactive”. For DISSFGHFSMSFFNRIIKGA the value was “inactive”. To DISSKY belongs “inactive”; to DIVSLVNAFMISTIYTVTRK, “inactive”; to DIYSDWLFIVLRHLVIRVLS, 0.754 ± 0.12. To DKGLGVLRHLNRWIVCTGHD belongs “inactive”; to DLAFGMSFDWT, “inactive”; to DLDGVPTHSVVERMKTWLDT, “inactive”. Consider DLFCCCYTLS, for which the amyloid nucleation score was found to be 1.03 ± 0.2. To DLFLKLSCDSRI belongs “inactive”; to DLGFWPYFISIMACCWDQKG, 1.15 ± 0.12; to DLHLLYKYILFAKLLV, “inactive”.

Take DLIWWRGAQAVNTLNSGSKR: the amyloid nucleation score was 0.115 ± 1.

Take DLLTFYFEPSASHSLLRPSG: the amyloid nucleation score result is “inactive”.

As for DLMLWKNFSLFTRESRGFAN, the amyloid nucleation score result is “inactive”. Regarding DLQRLSNRKSKGLWSGCIGK, the amyloid nucleation score entry was “inactive”. For DLTLIWMGGAAM the value was 0.826 ± 0.22; for DLTTFQDMSTCTLWVTSGYT, “inactive”.

For the substance DLYIYCFWLDMVITVCKRQK, the amyloid nucleation score entry was “inactive”. To DLYQPDS belongs “inactive”; to DMGRCCSRKLRRRTPYVKGR, “inactive”; to DMSHMIEICFVTNYTKGYVT, “inactive”. DNCFRKWT: the amyloid nucleation score entry is “inactive”. As for DNDLQSTKSPLWGVHQANVR, the amyloid nucleation score result was “inactive”. To DNFVY belongs “inactive”; to DNKVFTLSNQA, “inactive”. For DPGHRGLTDFYSMFRL the value was “inactive”; for DPSCGECFKA, 0.961 ± 0.1; for DPVIYRCSLVLLYSERSLPY, “inactive”. To DQVAYRGKSVYSYKCKTRWG belongs “inactive”; to DRAAMFSNSVQSCICTWMNI, 2.17 ± 0.061.

As for DRWVQAGSHTFTFLWDCERA, the amyloid nucleation score entry is “inactive”. As for DSISISY, the amyloid nucleation score entry is “inactive”. For DSLILWHGDANCSRLGYRGH the value was “inactive”; for DSNLRLYALTRCHKALHVMS, “inactive”. For DSNVRSFVSMLSVN the value was “inactive”; for DSPMKLSALSHM, -0.261 ± 0.96. For DSPTE the value was “inactive”; for DSRAGRGMSFLRFNRRSVDE, 0.209 ± 0.38; for DSRLE, “inactive”. Turning to DSSKVGFSALVNVSTIA, the amyloid nucleation score entry was “inactive”. To DSSLIAGPHVVCSWGLKNFS belongs “inactive”; to DSYCYVWYKYSNVNVGD, “inactive”; to DTDFIFVNIA, “inactive”. For DTSKNYAIYFGKLGDWSARS the value was -0.01 ± 0.96. Take DTVRHLISYRGLGRLHRHTM: the amyloid nucleation score result is “inactive”. To DTYFTVCSLWGPV belongs 0.999 ± 0.12. As to DVLRVFLFSSFIILCVGCTY, the amyloid nucleation score entry was “inactive”. To DVLWSGSYSSRLPGSIRDCE belongs “inactive”.

With DVNVALIHSDL, the amyloid nucleation score result was “inactive”. For DVPGIGCEGKALRRLGFLLR the value was “inactive”.

Take DVRKRSFIYVCNRSLVVPFR: the amyloid nucleation score result was “inactive”. For DVTRTCRYGEVYDWTIKIRP the value was “inactive”. For DVYISKDIRCCYLLKTFLPY the value was 0.123 ± 0.27; for DWNISLNLQDIGRRSLPIFA, “inactive”; for DYKKVGDSLFTVFVFRFINV, “inactive”.

As for DYMRFTYRIMNCLSDCYITN, the amyloid nucleation score result is “inactive”.
